{"source": "patent US20170335333", "key": {"[1]": {"tested_on": "McsS-YebF fusion peptide"}, "[2]": {"tested_on": "Microcin S peptide"}}}
{"substance": "Microcin immunity protein (mcsI)", "values": [{"measurement": "OD600 growth of E. coli Top10 after induction with 0.125% v/v L-arabinose", "setting": "[1]", "result": "the OD600 reading was restored significantly compared to the un-induced and control cultures"}, {"measurement": "OD600 growth of E. coli Top10 after induction with 0.125% v/v L-arabinose", "setting": "[2]", "result": "the OD600 reading was restored significantly compared to the un-induced and control cultures"}]}
